Laboratory results reported in the nanobody polyreactivity screen of Harvey et al. (2022).

Assay: yeast display, Sf9 membrane polyspecificity reagent, FACS + sequencing; frameworks hold sequencing errors
In short: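 Galactose-induced (36–48 hours) yeast carrying a synthetic nanobody display library were exposed to 10% biotinylated, detergent-solubilized Sf9 membrane reagent at 4 °C for 1 hour. FACS followed streptavidin microbead enrichment, using low and high (top ~1%) gates for expression (anti-HA) and reagent binding (streptavidin). Colony PCR, MiSeq 2 × 250 sequencing and CDR-length filtering followed. Labels for polyreactivity reflect the gate of origin.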

## QVQLVESGGGLVQAGGSLRLSCAASGYIFSYYTMGWYRQAPGKERELVAAISYSGGSTDYADSVKGRFTISRDNAKNTVYLQMNSLKPEDTAVYYCNADYSFWAKPYWEYGYDYWGQGTQVTVSS
  polyreactivity (PSR sort gate): low polyreactivity

## QVQLVESGGGLVLAGGSLRLSCAASGSTFDTYAMGWYRQAPGKERELVAAITSGGITNYADSVKGRFTISRDNAKNTVYVQMNSLKPEDTAVYYCAKEGFWPRQARRLDYWGQGTQVTVSS
  polyreactivity (PSR sort gate): low polyreactivity

## QVQLVESGGGLVQAGGSLRLSCAASGRIIRINAMGWYRQAPGKERELVATISRSGGRTYYADSVKGRFTISRDNAKNTVYLQMNSLKPEDTAVYYCNADHFYYSSQYGYWGQGTQVTVSS
  polyreactivity (PSR sort gate): high polyreactivity

## QVQLVESGGGLVQAGGSLRLSCAASGLTIRSYGMGWYRQAPGKERELVASITWSGGSTYYADSVKGRFTISRDNAKNTVYLQMNSLKPEDTAVYYCAASFDFQGYHYGYWGQGTQVTVSS
  polyreactivity (PSR sort gate): high polyreactivity

## QVQLVESGGGLVQAGGSLRLSCAASGSIFYVNTMGWYRQAPGKERELVAVIDYGGDSTYYADSVKGRFTISRDNAKNTVFLQMNSLKPEDTAVYYCAADAYESGNWEANGYWGQGTEVTVSS
  polyreactivity (PSR sort gate): low polyreactivity

## QGQLVESGGGLLQAGGSLRLISAASGSTFPIYAMGWYRHAPRKERELVAAITWRGGSRKYYADSVKGRYTISRDNAKNTVYLQMNCLKPEDTAVYYCAAEYKWPLYGYWGQGTQVTVSS
  polyreactivity (PSR sort gate): low polyreactivity

## QVQLVESGGGLVQAGGSLRLSCAASGRIIFHNAMGWYRQAPGKERELVASITSGDGTYYSDSVKGRFTISRDNAKNTVYLQMNSMKPEDTAVYYCAAEPGSIAYYYNRVGLYYWGQGTQVTVSS
  polyreactivity (PSR sort gate): low polyreactivity

## QVQLVESGGGLVQEGGSLRLSCAASGSTFWGYAMGWYRQAPGKERELVATITTGGSTNYADSVKGRFTISRDNAKNTVYLQMNSLKPEDTAVYYCAAERLFRFWYSAYERYDYCGQGTQVTVSS
  polyreactivity (PSR sort gate): low polyreactivity

## QVQLVESGGGLVQAGGSLRLSCAASGRTFGENTMGWYRQAPGKERELVASITWSGDSTFYADSVKGRFTISRDNAKNTVYLQMNSLKPEDTAVYYCARDDYYGSYGYDYWGQGTQVTVSS
  polyreactivity (PSR sort gate): low polyreactivity

## QVQLVESGGGLVQAGGSLRLSCAASGSTFGSYVMGWYRQAPGKERELVAAISQRGTSTYYADSVKGRFTISRDNAKNTVYLQMNSLKPEDTAVYYCNALYWQIGDDYWGQGTQVTVSS
  polyreactivity (PSR sort gate): high polyreactivity

## QVQLVESGGGLVQAGRSNRISCAASGGIFSYYAMGWYRQAPGKEREFVAAIDWGGGSTYYADSLKGRFTLSRDNAKNTVYLQMNSLKPEDTAVYYCAAEIYPIGWDDYDYWGQGTQVTVSS
  polyreactivity (PSR sort gate): low polyreactivity

## QVQLVESGGGLVQAGGSLRLSCAASGLTFWSYAMGWYRQAPGKERELVAAISKRGGSTYYADSVKGRFTISRDNAKNTVYLQMNSLKPEDTAVYYCAARTFRALNKYYYWGQGTQVTVSS
  polyreactivity (PSR sort gate): high polyreactivity

## QVQLVESGGGLVQAGGSLRLSCAASGSTFSSYVMGWDRQARGKERELVAAISSIGGSTYYADSVKGRFTISRDNAKNTVYLQMNSLKPEDTAVYYCAAEPPGSTYEGGYWGQGTQVTVSS
  polyreactivity (PSR sort gate): low polyreactivity

## QVQLVESGGGLVQAGGSLRLSCAASGRIFQIYAMGWYRQAPGKERELVATISSGTRTYYADSVKGRFTISRDNAKNTVYLQMNSLKPEDTAVYYCNTGLVYGYDYWGQGTQVTVSS
  polyreactivity (PSR sort gate): high polyreactivity

## QVQLVESGGGLVQAGGSLRLSCAASGSIIWLYAMGWYRQAPGKERELVAAISSGGSTYYADSVKGRFTISRDNAKNTVYLQMNSLKPEDTAVYYCAADYWSQSDWWDLTEYEYWGLGTQVTVSS
  polyreactivity (PSR sort gate): high polyreactivity

## QVQLVESGGGVVQAGRSLRISCAASGSTFRGYAMGWYRQAPGKDRELVATISGSDGTTYYADSVKGRFTISRDYAKNTVYLQMNCLNPEDTAVFYCDAGESFEMYYWGQGSQVTVSS
  polyreactivity (PSR sort gate): low polyreactivity

## QVQLVESGGGLVQAGGSLRLSCAASVSTFWFYAMGWYRQAPGKERELVAVISNSGSTYYADSVKGRFTISRDNAKNTVYLQMNSLKPEDTAVYYCAADVEGWTVESDVYRVGYDYWGQGTQVTVSS
  polyreactivity (PSR sort gate): low polyreactivity

## QVQLVESGGGLVQAGGSLRLSCAASGSTFWYYAMGWYRQAPGKERELVASITYSGGSTYYADSVKGRFTISRDNAKNTVYLQMNSLKPEDSAVYYCAAEGYYSNYHYWGQGTQVTVSS
  polyreactivity (PSR sort gate): low polyreactivity

## QVQLVESGGGLVQAGGSLRLSCAASGSTFQTYARGWYRQAPGKERELVASIDYSGGSTYYADSVKGRFTISRDNAKNTVYLQMNSLKPEDTAVYYCAKALSQTWYDGQYGYWGQGTQVTVSS
  polyreactivity (PSR sort gate): low polyreactivity

## QVQLVESGGGLVQAGGSLRLSCAASGRTFTGNAMGWYRQAPGKERELVAAISTSGTRTTYADSVKGRFTISRDNAKNPVYLQMTSLKPEDTAVYYCAALRKCLYRTYTYDYWGQGTQVTVSS
  polyreactivity (PSR sort gate): high polyreactivity

## QVQLVESGGGLVQAGGSLRLSCAASGRIFSYNAMGWYRQAPGKERELVAASTFSGGGTYYADSVKGRYTISRDNAKNPVYLQMNSLKPEDTAVYYCNNLSYGYSTYGYWGQGTQVTVSS
  polyreactivity (PSR sort gate): low polyreactivity

## QVQLVESGGGLVQAGGSLRLSCAASGIIFCRYAMGWYRQAPGKERELVATITWRGGSTYYADSVKGRFTISRDNAKNTVYLQMNSLKPEDTAVYYCAADTRQSRSFRARDYWGQGTQVTVSS
  polyreactivity (PSR sort gate): low polyreactivity

## QVQLVDSGGGLVQAGGSLRLICAASGRTIDNYAMGWYRQAPGKERELVAVISRSGDRRYYPDSEKGRFTISRDNAKNTVYLPMKSLKPEDTAVYYCNAVYGRSIYDGLFYTYDYWGQCTQVTVSS
  polyreactivity (PSR sort gate): high polyreactivity

## QVQLVESVGGLVQAGGSLSISCAASGRIFPRNAMGWYRPAPGKERELVAAISSGGGGTYYADSVKGRFTISRDNAKNTVYLQMNSQKPEDTAVYYCAAYVVRWWCDGDYWGQGTQVTVSS
  polyreactivity (PSR sort gate): high polyreactivity

## QVQLVESGGGLVQAGGSLRLSCAASGLIFYLYTMGWYRQAPGKERELVAAISRSGTITYYADSVKGRFTISRDNAKNSVYLQMNSLKPEDTAVYYCAATYTYKIGTRYDYWGQGTQVNVSS
  polyreactivity (PSR sort gate): high polyreactivity

## QVQLVESGGGLDQAGGSLRLSCAASGITFRYYAMGWYRQAPGKERELVATISRGVRTNYADSVKGRFTISRDNAKNTVYLQMNSLKPEDTAVYYCNADYASARRYDYWGQGTQVTVSS
  polyreactivity (PSR sort gate): high polyreactivity

## QVQLVESGGGLVQAGGSLRLSCAASGFTFPGYVMGWYRQAPGKERELVAAISRSGGRTYYADSVKGRFTISRDNAKNTVYLQMNSQKPDDTAVYYCNTPDPGRDSDYWGQGTQVTVSS
  polyreactivity (PSR sort gate): high polyreactivity

## QVQLVESGGGLVQAGGSLRLSCAASGRILTSNAMGWYRQAPGKERELVAAISWSGGSTYYADSVKGSFTISRDNAKNTVYLQMNSLKPDDSAVYYCAAPFTTTFDYSGQGTQVTVSS
  polyreactivity (PSR sort gate): low polyreactivity

## QVQLVESGGGLVQAGGSLRLSCAASGIIFTFYGMGWYRQAPGKERELVAAIRTGGSTTYADSVKGRFTISRDNAKNTVYLQMNSLKPEDTAVYYCAAERYWVFHGTISYNYDYWGQGTQVTVSS
  polyreactivity (PSR sort gate): low polyreactivity

## QVQLVESGGGLVQAGGSLRLSCAASGSIVPTYAMGWYRQAPGKERELVAAIRSGSNTYYADSVKGRFTISRDNAKNTVYLQMNSLKPEDTAVYYCNVGPQRKYPGRRTVPFGYWGQGTQVTVSS
  polyreactivity (PSR sort gate): low polyreactivity

## QVQLVESGGGLVQAGGSLRLSCAASGFIFYRYAMGWYRQAPGKERELVARISWNGGITYYADSVKGRFTISRDNAKNTVYLQMNILKPEDTAVYYCNKPDPYGLYTYEYWGQGTQVTVSS
  polyreactivity (PSR sort gate): low polyreactivity

## QVQLVESGGGLVQAGGSLRLSCAASGRTFYYAMGWYRQAPGKERELVAAISKNGGRTYYADSVKGRFTISRDNAKNTVYLQMNSLKPEDTAVYYCAAAFQRPHSYLYYYWGQGTQVTVSS
  polyreactivity (PSR sort gate): high polyreactivity

## QVQLVESGGGLVQAGGSLRLSCAASGRTFYANAMGWYRHAPGKERELVASITGSGGRTYYADSVKGRFTISRDNAKNTVYLLMNSLKPEDTAVYYCNADPGWVYRDYEPNGLDYWGQGTQVTVSS
  polyreactivity (PSR sort gate): low polyreactivity

## QVQLVESGGGLVQAGGSLRLSCAASGFIFSYYALGWYRQATGKERELVAAITYSGVRTYYADSVKGRFTISRDNAKNTVYLQMNSLKPVDTAVYYCNTKHRTKPTRPDDYWGQGTQVTVSS
  polyreactivity (PSR sort gate): high polyreactivity

## QVQLVESGGGLVQAGGSLRLSCAASGRIVYIYAMGWYRQAPGKERELVAAISSGGTTNYADSVKGRFTISRDNAKNTVYLQMNSLKPEDTAVYYCAAYWRSRNRFYWGQGTQVTVSS
  polyreactivity (PSR sort gate): high polyreactivity

## QVQLVESGGGLVQAGGSLRLSCAASGITLINYAMGWYRQAPGKERELVAAISTSGSSTYYADSVKGRFTISRDNAKNTVYLQMNSLKPEDTAVYYCAAELDVYSLFGYWGQGTQVTVSS
  polyreactivity (PSR sort gate): low polyreactivity

## QVQLVESGGGLVQAGGSLRLSCAASGSTFQGNAMGWYRHAPGKERELVAAISRSGGSTYADSVKGRFTISRDNAKNTVYLQINSLKPEDTAVYYCAAYSGVGYLWFDYWGQGTQVTVSS
  polyreactivity (PSR sort gate): low polyreactivity

## QVQLVESGGGLVQAGGSLRLSCAASGFTFTGYAIGWYRQAPGKERELVAAITSNTGGTYYADSVKGRFTISRDNAKNTVYLEMNSLKAEDTAVYYCAAGHSGGQVDTIFQGMDYWGQGTQVTVSS
  polyreactivity (PSR sort gate): low polyreactivity

## QVQLVESGGGLVQAGGSLRLSCAASGRIFQPYALGWYRQAPGKEREWVAAITRRAGSTYYADSVQGRFTISRDNAKNTVYLQMNSLKPDDTAVYYCAARGLYWAYEMEYWGQGTQVTVSS
  polyreactivity (PSR sort gate): low polyreactivity

## QVQLVESGGGLVQAGGSLRLSCAASGNTLRYNVMGWYRQAPGKERELDAAISGGGSTSYADSVKGRFTISRDNAKNTVYLQMNSLKPEDTAVYYCAKRSFVGGRGRDSDYWGQGSQVTVSS
  polyreactivity (PSR sort gate): low polyreactivity

## QVQLVESGGGLVQAGGSLRLSCAASGRIYSYYARGWYRPAPGKERELVAAISRTGGTTYYADSVKGRFTISRDNAKNTVYLQMNSLKPEDTAVYYCAASGGYRPHRYQIGDYDYWGQGTQVTVSS
  polyreactivity (PSR sort gate): high polyreactivity

## QVQLVESGGGLVQAGGSLRLTSAGSGGILPKNAMGWSRQAPGKERELVADISTRGTSTYYADSVKGRFTISRDIAKNTVYLQMNSVKPEVTAVYYCANCRDYIGYDYWGQGSQVTVSS
  polyreactivity (PSR sort gate): low polyreactivity

## QVQLVESGGGLVQAGGSLRLSCAASGRIFRYYAMGWYRQAPGKERELVAAISTSGDTTYYADSVKGRFTISRDNAKNTVYLQMNSLKPEDTAVYYCAKPIAPARNAYPAYDYWGQGTQVTVSS
  polyreactivity (PSR sort gate): high polyreactivity
